Data: paper PMC7655957 (2020)
One block for each binder: values may come before it.

Tests used:
[1] = biological target: T1, WT_(ZIP+)/WT_(ZIP−), BICD2_(1–98) heterodimer with C-terminal ZIP+/ZIP− leucine zipper (mouse (cDNA, methods); called human in …, UniProt Q921C5-1 1-98; Q921C5-1 1-98); experiment: ITC; one-site binding model (rejected, poor fit)
T1 chain 1: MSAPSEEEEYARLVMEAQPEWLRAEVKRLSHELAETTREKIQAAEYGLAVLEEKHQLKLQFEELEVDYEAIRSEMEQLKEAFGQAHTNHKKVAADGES
T1 chain 2: T1 chain 1

[2] = biological target: MBP-LIC1FL, full-length dynein light intermediate chain-1 (human, UniProt Q9Y6G9 1-523); experiment: ITC; 5 mM EGTA, 30 °C
Sequence of MBP-LIC1FL, full-length dynein light intermediate chain-1 (Q9Y6G9 whole entry): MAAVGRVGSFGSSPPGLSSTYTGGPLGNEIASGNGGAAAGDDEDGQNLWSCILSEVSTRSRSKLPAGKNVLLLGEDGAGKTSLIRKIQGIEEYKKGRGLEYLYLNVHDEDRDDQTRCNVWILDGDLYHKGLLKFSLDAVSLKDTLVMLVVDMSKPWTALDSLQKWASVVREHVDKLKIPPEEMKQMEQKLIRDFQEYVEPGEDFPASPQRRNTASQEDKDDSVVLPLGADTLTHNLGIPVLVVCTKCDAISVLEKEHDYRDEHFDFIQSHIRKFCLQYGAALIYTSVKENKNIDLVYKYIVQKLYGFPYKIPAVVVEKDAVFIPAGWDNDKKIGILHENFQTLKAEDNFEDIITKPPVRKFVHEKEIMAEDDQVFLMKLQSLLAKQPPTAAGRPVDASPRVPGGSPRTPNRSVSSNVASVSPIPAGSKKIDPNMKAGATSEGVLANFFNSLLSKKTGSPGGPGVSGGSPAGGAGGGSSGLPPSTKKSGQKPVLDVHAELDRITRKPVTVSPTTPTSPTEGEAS

Kd [1]: 3 µM
Binder: NMKAGATSEGVLANFFNSLLSKKTGS [LIC1_(433–458), amphipathic helix of the dynein light intermediate chain-1]

Kd [2]: 3.1 µM
B1: FIP3_(206–270), EF-hand pair of Rab11 family-interacting protein 3 (domain or fragment)
chain: RLRAVFDALDGDGDGFVRIEDFIQFATVYGAEQVKDLTKYLDPSGLGVISFEDFYQGITAIRNGD

Kd [2]: 15.5 µM
B2: NIN_(1–87), first EF-hand pair of Ninein (domain or fragment)
chain: MDEVEQDQHEARLKELFDSFDTTGTGSLGQEELTDLCHMLSLEEVAPVLQQTLLQDNLLGRVHFDQFKEALILILSRTLSNEEHFQE
